Laboratory results from paper PMC10018351.

What was measured:
hnRNPU [1] = target: hnRNPU (UniProt Q00839); test: anti-Flag co-IP, hnRNPU immunoblot; conditions: reference: wild type; sites S83,S85
hnRNPU [2] = target: hnRNPU (UniProt Q00839); test: Flag-hnRNPU co-IP, HA-FOXN3 immunoblot; conditions: reference: WT FOXN3 with HA-p38; sites S83,S85

binding against the reference (hnRNPU [1])	binding against the reference (hnRNPU [2])	Substance
stronger		FOXN3 (from UniProt O00409) S83,85A
	stronger	FOXN3 (from UniProt O00409) S83,85A with HA-p38
